In paper PMC5145181, “Structural Mapping and Functional Characterization of Zebrafish Class B G-Protein Coupled Receptor (GPCR) with Dual Ligand Selectivity towards GLP-1 and Glucagon” (PLoS ONE, 2016) one finds IC50 data, which are given here for six substances.

For experiment [1], the target named is zebrafish class B G-protein coupled receptor (zfGPCR), dual zfGLP-1R/GCGR (zebrafish (Danio rerio)). The experiment can be described thus: radioligand binding; competitive displacement of 125I-hGLP-1(7-36)amide (100,000 cpm/well) from recombinant zfGPCR on transiently transfected COS-7 cells in 24-well plates; cold peptide pM to μM in triplicate; 16-18 h at 4°C; IC50 by four-parameter logistic fit (Prism 4). Background: In a radioligand displacement assay an active substance lowers the binding of a labelled ligand.

For experiment [2] the target is unchanged. The experiment can be described thus: radioligand binding; competitive displacement of 125I-exendin(9-39) (100,000 cpm/well) from recombinant zfGPCR on transiently transfected COS-7 cells in 24-well plates; cold peptide pM to μM in triplicate; 16-18 h at 4°C; IC50 by four-parameter logistic fit (Prism 4).
Experiment [3] shares this target. Kind of experiment: radioligand binding.

human GLP-1(7-36)amide (hGLP-1), sequence (P01275 98-127): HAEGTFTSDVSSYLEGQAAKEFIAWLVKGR
human glucagon, sequence (P01275 53-81): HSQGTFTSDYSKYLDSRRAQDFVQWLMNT

By IC50 is commonly meant the midpoint of a concentration-inhibition curve. Regarding “exendin-4 (from UniProt P26349 48-87) (peptide)”, the IC50 is 0.48 nM in experiment [1] and 1 nM in experiment [2].

Turning to zebrafish glucagon (peptide), the IC50 in experiment [3] came to 106 nM; in experiment [1], 2.4 nM.

Take exendin(9-39) (peptide): the results for the IC50 in experiment [1] and in experiment [2] were 5.8 nM and 4.21 nM, respectively.

As to zebrafish GLP-1 (zfGLP-1) (peptide), the figures for the IC50 in experiment [3] and in experiment [1] were 290 nM and 2.1 nM, respectively.

Regarding “human glucagon (from UniProt P01275 53-81) (peptide)”, the IC50 in experiment [3] was 67 nM.

Consider “human GLP-1(7-36)amide (hGLP-1) (from UniProt P01275 98-127) (peptide)”, for which the IC50 turned out to be 178 nM in experiment [3] and 3.6 nM in experiment [1].
